Reference: patent publication US20220235118A1 (IMMUNOME, published 2022)

Key:
[1] = target: T1, SARS-CoV-2 Spike RBD N439K (SARS-CoV-2, UniProt P0DTC2 319-541); assay: HTRF, soluble RBD construct
T1 construct: domain: RBD

[2] = target: T2, SARS-CoV-2 Spike RBD K417N (SARS-CoV-2, UniProt P0DTC2 319-541); assay: HTRF, soluble RBD construct
T2 construct: domain: RBD

[3] = target: T3, SARS-CoV-2 Spike RBD N501Y (SARS-CoV-2, UniProt P0DTC2 319-541); assay: HTRF, soluble RBD construct
T3 construct: domain: RBD

[4] = target: T4, SARS-CoV-2 Spike RBD Y453F (SARS-CoV-2, UniProt P0DTC2 319-541); assay: HTRF, soluble RBD construct
T4 construct: domain: RBD

[5] = target: T5, SARS-CoV-2 Spike RBD A352S (SARS-CoV-2, UniProt P0DTC2 319-541); assay: HTRF, soluble RBD construct
T5 construct: domain: RBD

[6] = target: T6, SARS-CoV-2 Spike RBD A475V (SARS-CoV-2, UniProt P0DTC2 319-541); assay: HTRF, soluble RBD construct
T6 construct: domain: RBD

[7] = target: T7, SARS-CoV-2 Spike RBD K417T, E484K, N501Y (SARS-CoV-2, UniProt P0DTC2 319-541); assay: HTRF, EC50 of binding, soluble RBD construct
T7 construct: domain: RBD; also called Brazilian (K417T, E484K, N501Y)

[8] = target: T8, SARS-CoV-2 Spike-RBD Omicron variant (SARS-CoV-2, UniProt P0DTC2 319-541); assay: HTRF binding assay on soluble Spike-RBD B.1.1.529; % binding relative to Ref
T8 construct: domain: RBD; also called soluble RBD domain of the Spike protein containing mutations found in the Omicron variant

[9] = target: T9, SARS-CoV-2 Spike RBD K417N, E484K, N501Y (SARS-CoV-2, UniProt P0DTC2 319-541); assay: HTRF, soluble RBD construct
T9 construct: domain: RBD; also called S. African partial (K417N, E484K, N501Y)

[10] = target: T7, SARS-CoV-2 Spike RBD K417T, E484K, N501Y; assay: HTRF, soluble RBD construct

| Binder | fold over background [1] | fold over background [2] | fold over background [3] | fold over background [4] | fold over background [5] | fold over background [6] | binding result [7] | binding result [8] | EC50 [9] | EC50 [10] |
| --- | --- | --- | --- | --- | --- | --- | --- | --- | --- | --- |
| PR194_00232 (antibody, V domains shown, also called IMM20190; PR194_00190) VH: EVQLVESGGGLVQPGGSLRLSCSASGFTVSSNYMSWVRQAPRKGLEWVSVIYAGGSTFYADSVKGRFTISRDNSKNTLLLQMNSLRAEDTAVYYCARDRGGYLDYWGQGTLVTVSS VL: DIQMTQSPSSLSASVGDRVTITCRASQGISNYLAWYQQKPGKVPKLLIYAASTLQSGVPSRFSGSGSGTDFTLTISSLQPEDVATYYCQKYNSAPGLTFGGGTKVEIK | 5.95 fold over background | 2.25 fold over background | 4.3 fold over background | 5.94 fold over background | 6.75 fold over background | 7.47 fold over background | no binding | no binding |  |  |
| PR200_00622 (antibody, V domains shown, also called IMM20253; PR200_00253) VH: QVQLVESGGGVVQPGRSLRLSCTASGFTFSTYGMHWVRQAPGKGLEWVAVISYDGSSKHYAESVKGRFTISRDNSNNTLYLQMNRLRAEDTAVYYCARDGQPPGWGNYFDYWGQGTLVTVAS VL: SYVLTQPPSVSVAPGKTARITCGGNGIGSKSVYWYQQKPGQAPEVVVYDDSDRPSGIPERFSGSNSGNTATLTISRVEAGDEADYYCQVWDSSSDPWVFGGGTKLTVL | 5.05 fold over background | 4.68 fold over background | 5.11 fold over background | 4.67 fold over background | 5.14 fold over background | 5.22 fold over background |  |  | 19.7 pM | 23.6 pM |
| PR193_00018 (antibody, V domains shown, also called IMM20184; IMM200184) VH: EVQLVESGGGLVQPGGSLRLSCSASGFTFSSFWMSWVRQAPGKGLEWVATIREDGSEKYYVDSVKGRFSISRDNAKNSLYLQMNSLRAEDTAVYYCARSKWLRGSFDYWGQGTLVTVSS VL: NFMLTQPHSVSESPGKTVTISCTRRSGSIASNYVQWYQQRPGSAPTTVIYEDNQRPSGVPDRFSGSIDSSSNSASLTISGLQTEDEADYYCQSYDSSNPPGASWVFGGGTKLTVL | 4.43 fold over background | 3.64 fold over background | 4.92 fold over background | 4.74 fold over background | 4.62 fold over background | 4.42 fold over background |  |  | 14.5 pM | 18.3 pM |
